Experimental data taken from publication PMC5261807 (2017).
Non-standard residues stand in square brackets, D forms with d. Primed or numbered codes have the meaning given here. No end group written: not given here. Me2s″ = symmetric dimethylarginine (Rme2s); Arg(Me2a) = CN(C)C(=N)NCCC[C@H](N)C(=O)O; Lys(Me3) = C[N+](C)(C)CCCC[C@H](N)C(=O)O; Arg(Me2s) = CN=C(NC)NCCC[C@H](N)C(=O)O; pT = C[C@@H](OP(=O)(O)O)[C@H](N)C(=O)O; Lys(Me2) = CN(C)CCCC[C@H](N)C(=O)O; pS = N[C@@H](COP(=O)(O)O)C(=O)O; Lys(Me) = CNCCCC[C@H](N)C(=O)O

T1: Bdf1 bromodomain 2 (GST-tagged, WT) (Saccharomyces cerevisiae (strain ATCC …, UniProt P35817))
T1 chain: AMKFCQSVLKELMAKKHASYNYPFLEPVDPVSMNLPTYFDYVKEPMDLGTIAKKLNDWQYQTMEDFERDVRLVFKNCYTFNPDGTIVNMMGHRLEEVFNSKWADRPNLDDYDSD

T2: Bdf1 bromodomain 1 (GST-tagged, WT) (Saccharomyces cerevisiae (strain ATCC …, UniProt P35817))
T2 chain: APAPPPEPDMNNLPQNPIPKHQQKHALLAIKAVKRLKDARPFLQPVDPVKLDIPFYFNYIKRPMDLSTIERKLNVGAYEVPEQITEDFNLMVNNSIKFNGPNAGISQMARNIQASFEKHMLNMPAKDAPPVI


Legend:
[1] = target: T1, Bdf1 bromodomain 2 (GST-tagged, WT); assay: histone peptide array probed with recombinant GST-bromodomain, signal normalised to myc peptide control
[2] = target: T2, Bdf1 bromodomain 1 (GST-tagged, WT); assay: as above

| Binder | binding score [1] | binding score [2] |
| --- | --- | --- |
| ARTKQTARKSTGGKAPRKQ (A Rme2a T Kme3 Q T A R Kac S T G G K A P R K Q) | 0.00758 | 0.00628 |
| ARTKQTARKSTGGKAPRKQ (A Rme2s T Kac Q T A Rme2s K S T G G K A P R K Q) | 0.00876 | 0 |
| PRKQLATKAA[Arg(Me2s)][Lys(Me2)][pS]APATGG | 0 | 0.017 |
| ARTKQTARKSTGGKAPRKQ (A R T Kme1 Q T A Rme2s Kme3 S T G G K A P R K Q) | 0 | 0 |
| ARTKQTARKSTGGKAPRKQ (A R T K Q T A R Kac pS T G G K A P R K Q) | 0 | 0 |
| SGRGKGGKGLGKGGAKRHR (pS G Rme2a G Kac G G Kac G L G K G G A K R H R) | 0.206 | 0.0927 |
| PRKQLATKAAR(Me2s″)K[pS]APATGG | 0 | 0 |
| A[Arg(Me2a)]T[Lys(Me2)]QTA[Arg(Me2a)][Lys(Me2)]STGGKAPRKQ | 0 | 0.00126 |
| ARTKQTARKSTGGKAPRKQ (A R T K Q T A Rme2s K S T G G K A P R K Q) | 0 | 0.00305 |
| A[Arg(Me2s)]T[Lys(Me3)]QTA[Arg(Me2a)][Lys(Me)]STGGKAPRKQ | 0 | 0 |
| PRKQLATKAAR[Lys(Me)]SAPATGG | 0 | 0 |
| ARTKQTARKSTGGKAPRKQ (A R T Kme3 Q T A Rme2a Kme3 S T G G K A P R K Q) | 0 | 0.00538 |
| SGRGKGGKGLGKGGAKRHR (S G Rme2s G Kac G G Kac G L G Kac G G A K R H R) | 0.605 | 0.391 |

More lines, now with the values ahead:

| binding score [1] | binding score [2] | Binder |
| --- | --- | --- |
| 0.00148 | 0.0242 | ARTK(Ac)QTA[Arg(Me2s)][Lys(Me)]STGGKAPRKQ |
| 0.0107 | 0.0108 | ARTKQTARKSTGGKAPRKQ (A Rme2s T Kme2 Q T A Rme2a Kac S T G G K A P R K Q) |
| 0.0627 | 0.0911 | A[Arg(Me2a)]TK(Ac)QTARK(Ac)STGGKAPRKQ |
| 0 | 0.0167 | A[Arg(Me2a)]T[Lys(Me2)]QTA[Arg(Me2s)][Lys(Me3)]STGGKAPRKQ |
| 0.00207 | 0.00412 | A[Arg(Me2a)][pT]K(Me)QTARKSTGGKAPRKQ |
| 0 | 0 | ARTKQTARKSTGGKAPRKQ (A R T K Q T A R Kme3 pS T G G K A P R K Q) |
| 0 | 0.00323 | ARTKQTARKSTGGKAPRKQ (A R T K Q T A Rme2a Kme2 S pT G G K A P R K Q) |
| 0 | 0.00646 | SGRGKGGKGLGKGGAKRHR (S G Rme2s G K G G K G L G K G G A K R H R) |
